# Data reported in patent US6693076.
# Assays:
# [1] = target: 125I-[Threonine59]IGF-I binding sites in adult rat brain sections (level of the cerebellum and brain stem) (rat); assay: displacement of 0.01 nM 125I-[Thr59]IGF-I from rat brain sections; competitor at 1 mM
# [2] = target: 125I-[Threonine59]IGF-I binding sites in adult rat brain sections (level of the cerebellum and brain stem) (rat); assay: displacement of 0.01 nM 125I-[Thr59]IGF-I from rat brain sections; competitor at .10 mM
# [3] = target: 125I-[Threonine59]IGF-I binding sites in adult rat brain sections (level of the cerebellum and brain stem) (rat); assay: displacement of 0.01 nM 125I-[Thr59]IGF-I from rat brain sections; competitor at .25 mM
# [4] = target: 125I-[Threonine59]IGF-I binding sites in adult rat brain sections (level of the cerebellum and brain stem) (rat); assay: displacement of 0.01 nM 125I-[Thr59]IGF-I from rat brain sections; competitor at .025 mM
Binder,percent max. bound [1],percent max. bound [2],percent max. bound [3],percent max. bound [4]
SRVSRRSR [IGF-II(33-40)],76%,82%,–,–
ALLETYCATPAKSE [IGF-II(54-67)],–,–,167%,132%
